According to PMC4516795 (The Journal of Experimental Medicine, 2015):

B1: parent anti-basigin mAb (antibody, V domains shown)
VH: EVQLQQSGPELVKTGASVKISCKASGYSFSDDYMHWVKQSHGKSLEWIGYISCYNGVPSYNQKFKGKATFTVDTSSSTAYMQFSSLTSEDSAVYYCARGGNHGFYYHAMDYWGQGTSVTVSS
VL: DIVLTQSPAILSVSPGERVSFSCRASQSIGTGIHWYQQRTNGSPRLLIKFASESISGIPSRFSGSGSGTDFTLSINSVESEDIADYFCQQSTSWPYTFGGGTKLEIK
B2: recombinant chimeric anti-basigin antibody Ab-1 (antibody, V domains shown)
VH: B1 VH
VL: B1 VL

Target: purified monomeric (gel filtered) recombinant basigin (Homo sapiens, UniProt P35613-2, strain)
Assay: SPR

Binder	Kd [nM]
B1	~4
B2	~4
